# From publication PMC3240630
# Like-named read-outs stand apart in the source and are kept apart here.
# Legend:
# monoubiquitin [1] = biological target: monoubiquitin (UniProt P0CG48); details: cited from earlier work
# [2] = biological target: XIAP-UBA-RING double-domain construct (human); assay: SEC; analytical size-exclusion chromatography of 15N-XIAP-UBA-RING at 0.18 mM (methods in Methods S1)
# monoubiquitin [3] = biological target: monoubiquitin (UniProt P0CG48); details: cited from earlier work; remark: listed apart in the source
# monoubiquitin [4] = biological target: monoubiquitin (UniProt P0CG48); details: cited from earlier work; remark: listed apart in the source
# monoubiquitin [5] = biological target: monoubiquitin (UniProt P0CG48); details: cited from earlier work; remark: listed apart in the source
# monoubiquitin [6] = biological target: monoubiquitin (UniProt P0CG48); details: cited from earlier work; remark: listed apart in the source
# monoubiquitin [7] = biological target: monoubiquitin (UniProt P0CG48); details: cited from earlier work; remark: listed apart in the source
# monoubiquitin [8] = biological target: monoubiquitin (UniProt P0CG48); details: cited from earlier work; remark: listed apart in the source
# Chain of Ede1 UBA (P34216 1335-1381): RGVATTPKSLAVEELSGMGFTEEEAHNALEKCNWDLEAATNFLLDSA
# Chain of Cbl-b UBA (Q13191 928-973): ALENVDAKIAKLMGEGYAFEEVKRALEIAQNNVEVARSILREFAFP
# Chain of hHR23A UBA2 (P54725 315-361): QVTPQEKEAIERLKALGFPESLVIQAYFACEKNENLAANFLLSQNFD
# Chain of cIAP-1 (Q13490 whole entry): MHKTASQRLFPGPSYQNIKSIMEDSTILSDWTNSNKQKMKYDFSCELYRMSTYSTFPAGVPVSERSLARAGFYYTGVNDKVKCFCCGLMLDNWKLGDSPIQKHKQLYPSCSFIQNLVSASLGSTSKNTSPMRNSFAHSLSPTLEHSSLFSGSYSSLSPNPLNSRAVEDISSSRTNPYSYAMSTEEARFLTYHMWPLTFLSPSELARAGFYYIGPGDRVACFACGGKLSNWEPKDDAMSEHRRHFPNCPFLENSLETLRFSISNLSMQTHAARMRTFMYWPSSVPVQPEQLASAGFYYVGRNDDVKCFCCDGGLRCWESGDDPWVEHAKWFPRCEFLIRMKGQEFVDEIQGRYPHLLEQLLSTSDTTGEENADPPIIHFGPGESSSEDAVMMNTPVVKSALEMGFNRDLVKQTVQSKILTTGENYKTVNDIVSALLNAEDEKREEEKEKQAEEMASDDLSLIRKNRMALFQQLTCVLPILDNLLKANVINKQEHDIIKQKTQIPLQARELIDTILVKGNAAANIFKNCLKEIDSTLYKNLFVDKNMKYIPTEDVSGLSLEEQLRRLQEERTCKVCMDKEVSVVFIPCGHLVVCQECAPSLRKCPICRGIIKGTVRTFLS
# Chain of Mud1 UBA (Q10256 291-332): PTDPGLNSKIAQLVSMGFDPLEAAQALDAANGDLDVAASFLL
# Chain of Swa2 UBA (Q06677 137-183): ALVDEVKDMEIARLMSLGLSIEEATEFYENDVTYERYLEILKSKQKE
# Chain of Dsk2 UBA (P48510 324-373): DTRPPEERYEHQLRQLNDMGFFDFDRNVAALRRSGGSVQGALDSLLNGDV
substance,measurement,setting,value
Swa2 UBA (from UniProt Q06677),Kd,monoubiquitin [1],535 µM
XIAP-UBA-RING double-domain construct (domain or fragment),stoichiometry N,[2],2
Mud1 UBA (from UniProt Q10256),Kd,monoubiquitin [3],350 µM
Ede1 UBA (from UniProt P34216),Kd,monoubiquitin [4],83 µM
hHR23A UBA2 (from UniProt P54725),Kd,monoubiquitin [5],400 µM
cIAP-1 (from UniProt Q13490),Kd,monoubiquitin [6],56 µM
Dsk2 UBA (from UniProt P48510),Kd,monoubiquitin [7],14.8 µM
Cbl-b UBA (from UniProt Q13191),Kd,monoubiquitin [8],53.1 µM
